Drawing on PMC3627597, this text covers Kd, binding result and binding signal for five molecules.

Where two headings read alike, the source gives them in different places.

The target in data set [1] is T1, BAFF-R (B-cell activating factor receptor) (human, UniProt Q96RJ3 1-76).
T1 sequence: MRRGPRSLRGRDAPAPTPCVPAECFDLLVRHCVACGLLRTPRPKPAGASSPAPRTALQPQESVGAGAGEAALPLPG
The data set can be described thus: EMSA.

The target of data set [2] is T1, BAFF-R (B-cell activating factor …). The data set can be described thus: EMSA. This is another data set of the same source. For orientation: A gel shift assay detects complexes by their altered migration in electrophoresis.
A further data set has as its target BCMA (TNFRSF17) (human, UniProt Q02223 1-54). Nature of the data set: EMSA.
Data set [3] has as its target T1, BAFF-R (B-cell activating factor …). Nature of the data set: filter binding.

BCMA (TNFRSF17), sequence (Q02223 1-54): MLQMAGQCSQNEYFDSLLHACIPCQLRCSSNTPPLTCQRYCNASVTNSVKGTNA

B1: R-1 aptamer (structured_RNA)
RNA: GGGAGGACGAUGCGGGAGGCUCAACAAUGAUAGAGCCCGCAAUGUUGAUAGUUGUGCCCAGUCUGCAGACGACUCGCCCGA
modifications: 2'-F U and C
For orientation: Kd means a measure of binding affinity in units of concentration. The low end stands for tighter binding, the high end for weaker binding. For B1, the Kd was 54 nM in data set [1] and roughly 47 nM in data set [2]. In the data set with BCMA (TNFRSF17), the binding result is recorded as “no binding”. In data set [3], this molecule returned a binding signal greater than 36 % RNA retained.

B2: R-1-STAT3 27-mer OVH chimera (structured_RNA)
RNA 1: GGGAGGACGAUGCGGGAGGCUCAACAAUGAUAGAGCCCGCAAUGUUGAUAGUUGUGCCCAGUCUGCAGACGACUCGCCCGAUUUUUUUUGAGAACGGAAGCUGCAGAAAGAUACGA
RNA 2: GUAUCUUUCUGCAGCUUCCGUUCUC
modifications: 2'-F U and C in aptamer-sense strand
For B2, the equilibrium dissociation constant (Kd) in data set [2] came to 35 nM.

B3: R-22 aptamer (structured_RNA)
RNA: GGGAGGACGAUGCGGAUCCUCCGAAGGUCGCGCCAACGUCACACAUUAAGCUUUUGUUCGUCUGCAGACGACUCGCCCGA
modifications: 2'-F U and C
B3 displayed a binding signal in data set [3] of 3.6 % RNA retained.

B4: R-1-STAT3 27-mer SWAP chimera (structured_RNA)
RNA 1: GGGAGGACGAUGCGGGAGGCUCAACAAUGAUAGAGCCCGCAAUGUUGAUAGUUGUGCCCAGUCUGCAGACGACUGCCCGAUUUUUUUUUCAGUCGUAUCUUUCUGCAGCUUCCGU
RNA 2: GGAAGCUGCAGAAAGAUACGACUGA
modifications: 2'-F U and C in aptamer-antisense strand; S7 3' ga are DNA
B4: binding in data set [2] was put at a Kd of 56 nM.

B5: R-14 aptamer (structured_RNA)
RNA: GGGAGGACGAUGCGGAUAACUAUUGUGCUAGAGGGCUUAUUUAUGUGAGCCGGUUGAUAGUUGCGCAGACGACUCGCCCGA
modifications: 2'-F U and C
As to B5, the Kd in data set [2] is roughly 96 nM. Besides, the binding signal in data set [3] is greater than 36 % RNA retained.
